Source: patent US4331762A, “Bacillus stearothermophilus strain UK 788 and process for producing a useful enzyme” (Unitika Ltd., priority 1980, dated 1982)

Assays:
Experiment in all cases: purified protein, by the assay type
[1] = substrate: NC(=O)c1ccc[n+]([C@@H]2O[C@H](COP(=O)([O-])OP(=O)(O)OC[C@H]3O[C@@H](n4cnc5c(N)ncnc54)[C@H](OP(=O)(O)O)[C@@H]3O)[C@@H](O)[C@H]2O)c1; conditions: other: coenzyme NADP or NAD; pH 8.9
[2] = substrate: NC(=O)c1ccc[n+]([C@@H]2O[C@H](COP(=O)([O-])OP(=O)(O)OC[C@H]3O[C@@H](n4cnc5c(N)ncnc54)[C@H](O)[C@@H]3O)[C@@H](O)[C@H]2O)c1; conditions: other: coenzyme NADP or NAD; pH 8.9
Excerpt: The activity required to increase the absorbance of 1 micromol of NADPH at 340 nm per minute was defined to be one unit.

[3] = substrate: O=P(O)(O)OC[C@H]1OC(O)[C@H](O)[C@@H](O)[C@@H]1O; conditions: other: substrate glucose-6-phosphate; pH 8.9

B1: heat-resistant glucose-6-phosphate dehydrogenase from Bacillus stearothermophilus UK 788 (FERM-P No. 5141) (Geobacillus stearothermophilus ATCC 12980) (protein)
chain: MDNMNPKSIIVIFGATGDLAKRKLFPSLYRLYEKGHLNEQFAVVGVARRPLSADEFRNYVRDSVETAFHQKLADGRFTSHFYYHPFDVTEAESYQRLKSLLEQLDGTYKTEGNRIFYLAMAPEFFGTVTSRLQSEGLTETHGFKRLVIEKPFGHDLASAEKLNDEIRRVFSEREIYRIDHYLGKEMVQNIKVIRFSNAIFEPLWNNRFIANIQITSSETLGVEDRGRYYDHSGALRDMVQNHMLQMVALLAMEPPIKLTTDDIRHEKVKVLRALRPIAHDEVDRYFVRGQYGRGVIHGKHVPAYREEPNVDPDSNTETFVAGKLLIDNFRWAGVPFYIRTGKRMAEKSTKIVVQFKDVPMNLYYRTNETIAPNLLVIHIQPDEGITLHLNGKKTGESTTITAPFQLDYCNNCIDGINTPEAYEKLLYDCMRGDATNFTHWDEVAASWQFVDPISEVWANTKASDFPNYAAGSMGPAAAGELLKKDGFHWWPIEHPRP
[1]
  Km: 16 µM
[2]
  Km: 1640 µM
[3]
  Km: 160 µM
